# Test results: patent US20210324359A1, “USE OF GRAM-NEGATIVE LYSIN-ANTIMICROBIAL PEPTIDE (AMP) POLYPEPTIDE CONSTRUCTS IN TREATING ENDOCARDITIS” (priority 2020, published 2021)
# System: Pseudomonas aeruginosa strain 1292
# Settings: 10 μg/mL, 15 minutes, 100% human serum
# Excerpt: Samples were stained using the Live/Dead Cell Viability Kit (ThermoFisher) and examined by both differential interference contrast (DIC) and fluorescence microscopy.
molecule,measurement,value
"GN121: variant lysin (SEQ ID NO: 175), also disclosed in WO 2019/118632 (protein) MTYTLSKRSLDNLKGVHPDLVAVVHRAIQLTPVDFAVIEGLRSVSRQKELVAAGASKTMNSRHLTGHAVDLAAYVNGIRWDWPLYDAIAVAVKAAAKELGVAIVWGGDWTTFKDGPHFELDRSKYRRKKTRKRLKKIGKVLKWI",live/dead bacteria by microscopy,a reduction of live bacteria
